In US20240398942A1 (CHIA TAI TIANQING PHARMACEUTICAL GROUP, published 2024):
Positions count from the first letter of the chain named.

B1: humanized antibody huC1H1-V1 (antibody, human IgG2, kappa, V domains shown)
VH: EVQLVESGGGLVKPGGSLRLSCAASGFTFSNYGISWVRQAPGKGLEWVASISSGGDNTYYPDNVKGRFTISRDNAKNSLYLQMNSLRAEDTAVYYCARAGEKAMDYWGQGTLVTVSS
VL: EIVLTQSPATLSLSPGERATLSCRASQTINNNLHWYQQKPGQAPRLLIKYASQSISGIPARFSGSGSGTDFTLTISSLEPEDFAVYFCQQFSSWPLTFGGGTKVEIKR
notes: Human IgG2 / kappa
B2: humanized antibody huC1H1-V2 (antibody, human IgG2, kappa, V domains shown)
VH: B1 VH with A49S
VL: B1 VL
notes: Human IgG2 / kappa
B3: BM2 (selicrelumab) (antibody, human IgG2, kappa, V domains shown)
VH: not shown
VL: DIQMTQSPSSVSASVGDRVTITCRASQGIYSWLAWYQQKPGKAPNLLIYTASTLQSGVPSRFSGSGSGTDFTLTISSLQPEDFATYYCQQANIFPLTFGGGTKVEIKR
notes: Benchmark antibody, prepared in-house; also called CD40-BM2; benchmark
B4: BM1 (dacetuzumab) (antibody, human IgG1, kappa, V domains shown)
VH: EVQLVESGGGLVQPGGSLRLSCAASGYSFTGYYIHWVRQAPGKGLEWVARVIPNAGGTSYNQKFKGRFTLSVDNSKNTAYLQMNSLRAEDTAVYYCAREGIYWWGQGTLVTVSS
VL: DIQMTQSPSSLSASVGDRVTITCRSSQSLVHSNGNTFLHWYQQKPGKAPKLLIYTVSNRFSGVPSRFSGSGSGTDFTLTISSLQPEDFATYFCSQTTHVPWTFGQGTKVEIKR
notes: Benchmark antibody, prepared in-house; also called CD40-BM1; benchmark
B5: mouse anti-CD40 monoclonal antibody C1H1 (antibody, V domains shown)
VH: EVKLVESGGGLVKPGASLKLSCAASGFTFSNYGISWVRQTSDKRLEWVASISSGGDNTYYPDNVKGRFTISRENAKNTLYLQMSSLKSEDTALYYCARAGEKAMDYWGQGTSVTVSS
VL: DIVLTQSPVTLSVTPGDSVSLSCRASQTINNNLHWYQQKSHESPRLLIKYASQSISGIPSRFSGSGSGTDFTLSINSVETEDFGIYFCQQFSSWPLTFGAGTKLELK
notes: Parent mouse antibody from a hybridoma; the mouse constant regions are not; also called Mouse C1H1
B6: chimeric antibody C1H1 (antibody, human IgG1, kappa, V domains shown)
VH: B5 VH
VL: DIVLTQSPVTLSVTPGDSVSLSCRASQTINNNLHWYQQKSHESPRLLIKYASQSISGIPSRFSGSGSGTDFTLSINSVETEDFGIYFCQQFSSWPLTFGAGTKLELKR
notes: also called Chimeric C1H1

What follows are binders tested against T1, full-length human CD40 on 293T-NF-κB-Luc-CD40 reporter cells (human, UniProt P25942 21-277) (assay: flow cytometry (FACS) on 293T-CD40 cells stably expressing full-length human CD40, PE-labeled goat anti-human IgG Fc, MFI).
T1 construct: Stably expressed full-length human CD40; also called uniprot P25942-1
Protocol: The binding of the anti-CD40 antibody to 293T-CD40 cells (prepared by Biosion) that stably express full-length human CD40 (uniprot #P25942-1, SEQ ID NO: 30) on the cell membrane was measured by flow cytometry (FACS). According to the instructions of lipofectamine 3000 transfection reagent (Thermo Fisher), 293T-CD40 cells were prepared by transfecting 293T cells with pCMV-T-P plasmid inserted with CD40 coding sequence between EcoRI and XbaI loci. Specifically, 293T-CD40 cells were harvested from cell culture flasks, washed twice, and resuspended in FACS buffer (phosphate buffered saline (PBS) containing 2% v/v of fetal bovine serum). The anti-CD40 antibody of the present application or the benchmark serially 4-fold diluted in the FACS buffer from 80 nM was added at 100 μL/well to a 96-well plate containing 2×10⁵ cells/well. The plate was incubated in an ice bath for 40 min. After the cells were washed twice with the FACS buffer, an affinity-purified R-phycoerythrin-labeled goat anti-human IgG (Fcγ fragment-specific, Jackson Immuno Research, Cat. No. 109-115-098, 1:1000 diluted in the FACS buffer) was added at 100 μL per well. After incubation at 4° C. for 40 min in the dark, the cells were washed thrice and resuspended in the FACS buffer. Fluorescence values were measured using Becton Dickinson FACS Canto II-HTS, and curves of fluorescence value vs. antibody concentration were plotted. Data were analyzed using Graphpad Prism software, and EC₅₀ values were obtained.

Binder	EC50
B1	4.95 nM
B2	4.64 nM
B3	3.52 nM
B4	0.375 nM
B5	1.44 nM
B6	2.13 nM

Each binder was assayed against T2, human CD40-Fc protein (human, biotinylated (sites not given) in the capture ELISA and the benchmark blocking ELISA; not biotinylated in the ligand blocking ELISA) (assay: competitive ELISA: human CD40-Fc coated, antibody titrated, blocked ligand biotinylated human CD40L-his (95 ng/mL), streptavidin-HRP, OD(450-630)).
T2 construct: also called biotinylated human CD40-Fc
Protocol: The ability of the anti-CD40 antibody to block the binding of CD40 to CD40L was determined by competitive ELISA. Briefly, a human CD40-Fc protein (amino acid residues 21-193 of SEQ ID NO: 30 linked to the N terminus of amino acid residues 99-330 of SEQ ID NO: 28) dissolved in the immobilization buffer (carbonate/bicarbonate buffer) at a concentration of 2 μg/mL was immobilized on a 96-well plate at 100 μL/well and incubated overnight at 4° C. The next day, the plate was washed once with a washing buffer (PBS+0.05% v/v of Tween-20, PBST) before a PBST containing 5% w/v of skim milk was added. The plate was then incubated at 37° C. for 2 h for blocking. The plate was then washed 4 times with the washing buffer.
The anti-CD40 antibody of the present application or the benchmark was serially 5-fold diluted from 200 nM in a PBST containing 2.5% w/v of skim milk, and the serially diluted anti-CD40 antibody or benchmark was added at 100 μL/well to a plate coated with CD40-Fc protein and incubated at 37° C. for 40 min. The plate was then washed 4 times with the washing buffer before a biotinylated human CD40L-his protein (Sino Biological Inc., Cat. No. 10239-H08E, 95 ng/mL) was added at 100 μL per well. The plate was then incubated for 40 min at 37° C. The plate was washed again with the washing buffer. Then, an HRP-labeled streptavidin (Jackson Immunoresearch, Cat. No. 016-030-084, 1:10000 diluted in PBST buffer) was added at 100 μL/well and the plate was incubated at 37° C. for 40 min. The plate was washed again with the washing buffer. Finally, TMB was added and the reaction was stopped by adding 1 M H₂SO₄. The absorbance of each well was read on a microplate reader using the dual wavelength mode (TMB detection wavelength: 450 nm, reference wavelength: 630 nm). Curves of OD(450-630) values vs. antibody concentration were plotted. Data were analyzed using Graphpad Prism software, and IC₅₀ values were obtained.

Binder	IC50
B1	7.91 nM
B2	6.1 nM
B3	7.22 nM
B4	2.01 nM
B5	6.46 nM
B6	6.97 nM

These binders were tested against T2, human CD40-Fc protein (assay: capture ELISA: antibody captured on coated goat anti-human IgG F(ab')2, biotinylated human CD40-Fc 1.15 nM, streptavidin-HRP, OD(450-630)).
Protocol: (§1) The plate was washed once with a washing buffer (PBS+0.05% v/v of Tween-20, PBST) and then blocked with 200 μL/well blocking buffer (PBST containing 5% w/v of skim milk) for 2 h at 37° C. The plate was washed 4 times, and the anti-CD40 antibody of the present application, BM1, BM2, and a negative control hIgG (human immunoglobulin for intravenous injection (pH 4), Hualan Biological Engineering Inc.) serially 5-fold diluted from 66.7 nM in a PBST containing 2.5% w/v of skim milk was added at 100 μL per well. The plate was incubated for 40 min at 37° C. and washed 4 times. A biotinylated human CD40-Fc protein (amino acid residues 21-193 of SEQ ID NO: 30 linked to the N terminus of amino acid residues 99-330 of SEQ ID NO: 28, dissolved in PBST containing 2.5% w/v of skim milk at a concentration of 1.15 nM) was added at 100 μL/well to a 96-well plate coated with the anti-CD40 antibody. The plate was incubated at 37° C. for 40 min and washed 4 times. An HRP-labeled streptavidin (diluted at 1:10000 in PBST, Jackson Immuno Research, Cat. No. 016-030-084) was added at 100 μL/well, and the plate was incubated at 37° C. for another 40 min. After the last wash, 100 μL/well of ELISA substrate TMB (Innoreagents, Cat. No. TMB-S-002) was added and the plate was incubated at room temperature. After 3-10 min, the reaction was stopped by adding 1 M H₂SO₄ at 50 µL/well, and the absorbance of each well was read on a microplate reader using the dual wavelength mode (TMB detection wavelength: 450 nm, reference wavelength: 630 nm). Curves of OD(450-630) values vs. antibody concentration were plotted. Data were analyzed using Graphpad Prism software, and EC₅₀ values were obtained.

Binder	EC50
B3	1.34 nM
B4	0.59 nM
B5	0.203 nM
B6	0.343 nM

Molecular target: T2, human CD40-Fc protein
Test: as above
Remark: another data set of the same source
Protocol: as §1

Binder	EC50
B1	0.574 nM
B2	0.424 nM
B3	0.72 nM
B4	0.101 nM
B5	0.141 nM
B6	0.198 nM
